Test results: the supplement of paper PMC9170038

System: MS2 coat protein
Assay: apparent KD of MS2 coat protein; designed switch direction (-1 OFF switch, 1 ON switch): -1; higher = weaker reporter binding
Procedure, shortened: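 The buffer was Tris-HCl pH 7.5 with KCl, MgCl2, BSA, DTT, tRNA and Tween-20. In it, SNAP-549-labelled MS2 coat protein was titrated in doubling steps from 0.7 or 1.5 nM to 3 µM over chip-bound RNA switches transcribed by stalled E. coli RNA polymerase on Illumina chips. Apparent KD is the per-design median over clusters of curve fits to normalised fluorescence.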

[1] = Eterna round: R95, input ligand: microRNA oligo, concentration not stated
[2] = input ligand: microRNA oligo, concentration not stated
[3] = Eterna round: R95, input ligand: FMN 200 uM
[4] = Eterna round: R95, input ligand: none

Sequence	apparent KD of MS2 coat protein [1] [nM]	apparent KD of MS2 coat protein (input ligand: FMN 200 uM) [nM]	apparent KD of MS2 coat protein [2] [nM]	apparent KD of MS2 coat protein (input ligand: none) [nM]	apparent KD of MS2 coat protein [3] [nM]	apparent KD of MS2 coat protein [4] [nM]
CCUCCACAUGAGGAUCACCCAUGUCAGGAUAUCGUGUGUUUUUUUUCGGUCUUUCGUGCGAGAAGGGACGUCUG (puzzle: Exclusion 1)	28.1	–	–	–	–	–
CCUCGAAGGCAAGGAUAUCCUACAUUGUUCUGGCCCGGGCAUGCUACAUGAGGAUCACCCAUGUGGGAGAAGGUGCGCCACGGC [Design 30] (Eterna round: R96, puzzle: Exclusion NG 2)	–	56.7	45	58.3	–	–
CCUCGACAUGAGGAUCACCCAUGUGAGGAUAUCAUAUUCAGACGAAAGGUGUUAGAGUUGAGAAGGCGCAUGUU [Eternabot (L1) Solution 51] (Eterna round: R97, puzzle: Exclusion 1)	–	44.1	–	28.3	–	–
CCUCUACAUGAGGAUCACCCAUGUGAGGAUAUCCUGCGAGGAUCAAAAGAUCCUCGUGGGAGAAGGCAUAUGAU [Omei Ex1 A3] (Eterna round: R97, puzzle: Exclusion 1)	–	36.5	–	26.6	–	–
CCUCUACAUGAGGAUCACCCAUGUGAGGAUAUGCGAGGCGCACUCGAUGAGCGCGCCGGUAGAAGGCAUGUGGU [Raraveries] (Eterna round: R96, puzzle: Exclusion 1)	–	67	29.8	41.9	–	–
CCUCUACAUGAGGAUCACCCAUGUGAGGAUAUGUUGACGAGCCUGAAAAGGCUGGUCAACAGAAGGCAUAUGUA [Exclusion 1 (Mod 2 solution 16 by Eternabot)] (Eterna round: R97, puzzle: Exclusion 1)	–	40.3	–	18.9	–	–
CCUGUACAUGAGGAUCACCCAUGUUAGGAUAUCUCGCCGUCGGCUUGCCGACGGUAUUAGAGAAGGGACAAGGG [JL Tixe mod 4] (puzzle: Exclusion 1)	31	–	–	–	–	–
CCUGUGUAAGGAUAUGCCUGGCCGUGAGGCCAGAUUGAAUAGCAGAAGGUACAUGAGGAUCACCCAUGUACGGG [jl-ex4-4.61 ViennaUCT mod] (Eterna round: R97, puzzle: Exclusion 4)	–	206	–	32.9	–	–
CCUUAACAUGAGGAUCACCCAUGUGAGGAUAUGAUGCAGCAGUGGUCUACGCUGUGCAUCAGAAGGUACAUGGU (Eterna round: R96, puzzle: Exclusion 1)	–	291	35.9	44.5	–	–
CCUUAACAUGAGGAUCACCCAUGUGAGGAUAUGAUGCAGCAGUGGUCUACGCUGUGCAUCAGAAGGUACAUGGU (puzzle: Exclusion 1)	38.9	–	–	–	–	–
CGAAAUGCCCGUGGCCACAAGCUUUUUGCUUGUCUUACUACAUGAGGAUCACCCAUGUACCAUGGGCUCCUGACCAU [Rixele] (puzzle: Sensor v3, turn-off variant 2)	11.6	–	–	–	13.6	11.2
CGACGUGGAGUGAGGAUAUCGUGUUCGAAAGAACGUGAGAAGGCACAUGAGGAUCACCCAUGUGAUUCACGUCG [Omei Ex4B A5] (Eterna round: R97, puzzle: Brourd's mod of Exclusion 4)	–	27.7	–	20.6	–	–
CGAUAAAAGACAGGAUAUGAGGAGAGAGAGAGAUCAGAAGGGUCACAUGAGGAUCACCCAUGUGAGUUCUCGAUAAGAAAGAGG [Prohibition 52 - Jieux - Exclusion NG 1] (Eterna round: R96, puzzle: Exclusion NG 1)	–	19.3	14.6	21	–	–
CGAUAGAUAGGAUAUAUAAUUGGAAUUCACCUUGGGCGGCUACAUGAGGAUCACCCAUGUAGAAGGGUCUUCGA [Eternabot (L1) Solution 80] (Eterna round: R97, puzzle: Exclusion 2)	–	16.3	–	18.5	–	–
CGAUGACCGGUGAGGAUAUCGUGUUCGAAAGAACGUGAGAAGGCACAUGAGGAUCACCCAUGUGAUCCUCAUCG [Omei Ex4B A33] (Eterna round: R97, puzzle: Brourd's mod of Exclusion 4)	–	25.9	–	18.2	–	–
CGAUGACGAGUGAGGAUAUCGUGUUCGAAAGAACGUGAGAAGGCACAUGAGGAUCACCCAUGUGAUCCUCAUCG [Omei Ex4B A26] (Eterna round: R97, puzzle: Brourd's mod of Exclusion 4)	–	708	–	57.1	–	–
CGAUGUCUUCGGACAUCGAACAUGAGGAUCACCCAUGUAUAGAGCAGAUCUUCAUGCAAGCUUUUUGCUCGUCUUAU [Sensor v3 - turn-off variant 1 - 47] (puzzle: Sensor v3, turn-off variant 1)	14.6	–	–	–	84.7	90.4

Sequence	apparent KD of MS2 coat protein [1] [nM]	apparent KD of MS2 coat protein (input ligand: FMN 200 uM) [nM]	apparent KD of MS2 coat protein [2] [nM]	apparent KD of MS2 coat protein (input ligand: none) [nM]	apparent KD of MS2 coat protein [3] [nM]	apparent KD of MS2 coat protein [4] [nM]
CGCAACACAUGAGGAUCAAACAUGAGGAUCACCCAUGUAUAACAAGCUUUUUGCUCGUCUUAUAAAUAUGUGUUGCG [Electric Eye 2 - Jieux - Sensor, turn-off variant 1] (Eterna round: R97, puzzle: Sensor, turn-off variant 1)	–	16.9	–	9.13	–	–
CGCACGUAAGGAUAUACAUGAGGAUCACCCAUGUGUAAAUACUGCAACGUGGUGAAUAGUAGAAGGUACGAUGC [Eternabot (L2) Solution 56] (Eterna round: R97, puzzle: Exclusion 3)	–	55.5	–	18.3	–	–
CGCCCGGGAGGAUAUCCAAUAUAUGACAUGAGGAUCACCCAUGUUUCCACUCGUACCUCCGGAGAAGGCCCGGCGA [Ex5 #28] (Eterna round: R97, puzzle: Exclusion 5)	–	20.2	–	24.9	–	–
CGCGUUUAUGUAGGAUAUGCCUGGCGUGCCUUAGCAGAAGGACAUGAGGAUCACCCAUGUAACAUGAGGCUCACCCAUGUCGCA (Eterna round: R96, puzzle: Exclusion NG 1)	–	201	120	167	–	–
CGCUGGACAGGAUAUGUUCUUGGGCACUUGAGGAUCACCCAAGUCAUCGGGACAACAGGCACAGAAGGGUUUAUGG [salish99_ex5_r4_025] (Eterna round: R97, puzzle: Exclusion 5)	–	31.6	–	43.9	–	–
CGCUGGACAGGAUAUGUUCUUGGGCACUUGAGGAUCACCCAAGUCAUCGGGACAUCAGGCACAGAAGGGUCGUUGG [salish99_ex5_r4_029] (Eterna round: R97, puzzle: Exclusion 5)	–	22.2	–	25.6	–	–
CGCUGGUGAGGAUAUGGGUGUUUUUACAUGAGGAUCACCCAUGUGGAGUAGCAUGUGGGUCCAGAAGGCGCGAGUG [-24.2, -22.5 kcal, 21% A] (Eterna round: R97, puzzle: Exclusion 5)	–	398	–	309	–	–
CGGAAAUCCAAGGAUAUGCUAGACGAAAGUCUAGCAGAAGGUGGAACAUGAGGAUCACCCAUGUGUCCAAUCCG [Mat - Exclusion 6 - Eli Mod - D25] (Eterna round: R97, puzzle: Exclusion 6)	–	19.1	–	14.5	–	–
CGGAUGUAAGGAUAUUAGUAGUAGUCAGAAAAGACUAUUACUGAGAAGGUACAUGAGGAUCACCCAUGUUUCCG [Mat - Exclusion 4 - Eli Mod - D43] (Eterna round: R97, puzzle: Exclusion 4)	–	20.5	–	15.8	–	–
CGGAUGUUAGGAUAUUAGUAGUAGUCAGAAAAGACUAUUACUGAGAAGGAACAUGAGGAUCACCCAUGUAUCCG [Mat - Exclusion 4 - Eli Mod - D45] (Eterna round: R97, puzzle: Exclusion 4)	–	33.1	–	15.1	–	–
CGGCAAAGGUAGGAUAUGCUAGACGAUAGUCUAGCAGAAGGACCUACAUGAGGAUCACCCAUGUGUCCAAGCCG [Mat - Exclusion 6 - Eli Mod - D19] (Eterna round: R97, puzzle: Exclusion 6)	–	27.9	–	105	–	–
CGGCAACAUGUCAGGAUAUAUGUACCGCUGGGUGGAUAGAAGGGACAUGAGGAUCACCCAUGUCGUCCAGCCGG [Tisove] (puzzle: Brourd's mod of Exclusion 4)	12.6	–	–	–	19.4	13.9
CGGCAAUCCAAGGAUAUGCUAGACGAAAGUCUAGCAGAAGGUGGAACAUGAGGAUCACCCAUGUGUCCAAGCCG [Eli x6 4.04] (Eterna round: R97, puzzle: Exclusion 6)	–	21.1	–	15.3	–	–
CGGCAUGUAGAAGGAUAUCUGCACGAUUAGUGCAGAGAAGGUCUAACAUGAGGAUCACCCAUGUAGAUCAUUAACCGAUUAAUU [ENG1/8-A1] (Eterna round: R96, puzzle: Exclusion NG 1)	–	21.9	10.7	12	–	–
CGGCAUGUCUGAGGAUAUCUGCACGUGUAGUGCAGAGAAGGCAGAACAUGAGGAUCACCCAUGUAGAUCAUUAACCGAUUAAUU [ENG1/7-A3] (Eterna round: R96, puzzle: Exclusion NG 1)	–	201	162	184	–	–
CGGCGGGCAGGAUAUGGAAAUAAUAACAUGAGGAUCACCCAUGUAAAUAAAUGGGAAUAACCAGAAGGGCUUGUUG [-18.2, -17.7 kcal, A 37%] (Eterna round: R97, puzzle: Exclusion 5)	–	49.7	–	90.9	–	–
CGGGAGGGACAAGCUUUUUGCACGUCUGUUAUUGAUGCUACAUGAGGAUCACCCAUGUUUAAGAUGUGUGAGGAUGG [JR_SV3TOV2_Sub053] (puzzle: Sensor v3, turn-off variant 2)	57.6	–	–	–	26.2	31.3
